Literature values as cited in publication PMC9794804.
pKd: −log10 of the molar value.

Assays:
TLR4 = TLR4 (UniProt O00206)
IL-6R = IL-6R (UniProt P08887)
TREM-1 = TREM-1 (UniProt Q9NP99)
Chain of TREM-1 (Q9NP99 21-205): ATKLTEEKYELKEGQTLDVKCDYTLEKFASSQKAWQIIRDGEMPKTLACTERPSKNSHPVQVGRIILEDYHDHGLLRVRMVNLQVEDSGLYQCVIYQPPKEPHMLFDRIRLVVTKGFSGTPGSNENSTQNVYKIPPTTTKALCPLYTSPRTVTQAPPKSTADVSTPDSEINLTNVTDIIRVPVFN

Chain of eCIRP (Q14011 whole entry): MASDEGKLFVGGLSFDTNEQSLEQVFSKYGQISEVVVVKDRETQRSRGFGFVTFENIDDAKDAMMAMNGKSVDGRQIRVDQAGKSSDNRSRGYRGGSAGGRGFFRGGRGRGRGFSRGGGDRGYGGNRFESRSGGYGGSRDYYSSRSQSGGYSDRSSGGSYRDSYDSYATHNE
Chain of TLR4 (O00206 24-631): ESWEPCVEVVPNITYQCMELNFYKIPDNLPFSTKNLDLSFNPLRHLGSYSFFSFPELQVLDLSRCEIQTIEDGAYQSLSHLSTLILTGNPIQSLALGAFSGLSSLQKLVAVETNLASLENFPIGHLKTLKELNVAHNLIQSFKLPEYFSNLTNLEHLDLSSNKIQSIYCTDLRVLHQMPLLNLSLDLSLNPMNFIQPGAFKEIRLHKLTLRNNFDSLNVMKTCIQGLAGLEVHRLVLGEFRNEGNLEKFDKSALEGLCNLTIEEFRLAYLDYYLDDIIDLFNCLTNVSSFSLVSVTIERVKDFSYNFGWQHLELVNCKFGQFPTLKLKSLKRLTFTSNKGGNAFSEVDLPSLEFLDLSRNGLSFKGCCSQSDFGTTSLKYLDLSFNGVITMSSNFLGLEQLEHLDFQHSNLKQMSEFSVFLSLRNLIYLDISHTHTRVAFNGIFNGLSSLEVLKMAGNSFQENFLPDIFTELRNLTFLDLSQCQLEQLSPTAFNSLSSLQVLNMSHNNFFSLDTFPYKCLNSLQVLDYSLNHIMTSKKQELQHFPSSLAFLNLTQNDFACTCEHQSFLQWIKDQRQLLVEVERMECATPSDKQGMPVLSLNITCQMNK
Chain of IL-6R (P08887 20-365): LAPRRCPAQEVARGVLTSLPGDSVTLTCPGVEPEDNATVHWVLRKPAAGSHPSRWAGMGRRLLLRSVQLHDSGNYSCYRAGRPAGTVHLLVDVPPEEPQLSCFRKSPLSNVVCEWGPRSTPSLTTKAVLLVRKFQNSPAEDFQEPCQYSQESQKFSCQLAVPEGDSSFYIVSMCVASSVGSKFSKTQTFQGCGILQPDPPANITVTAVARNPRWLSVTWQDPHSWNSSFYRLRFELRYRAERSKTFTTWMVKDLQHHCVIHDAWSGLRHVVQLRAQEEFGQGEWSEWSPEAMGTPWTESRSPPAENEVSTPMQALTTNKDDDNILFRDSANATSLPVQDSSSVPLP

pKd (TLR4): 6.21 | pKd (IL-6R): 7.01 | pKd (TREM-1): 6.93
Substance: eCIRP (from UniProt Q14011)
